According to the supplement of paper PMC7877785:
± gives the uncertainty stated by the source.

Test: self-splicing fitness, log relative to wild type (ln ratio); higher = more splicing; Tetrahymena group I intron in knt gene, E. coli kanamycin selection, DiMSum; sequences stand for … in CUCUCU…GGAGGGAAAAGUUAUCAGGCAUGCACCUGGUAGCUAGUCUUUAAACCAAUAGAUUGCAUCGGUUUAAAAGGCAAGACCGUCAAAUUGCGGGAAAGGGGUCAACAGCCGUUCAGUACCAAGUCUCAGGGGAAACUUUGAGAUGGCCUUGCAAAGGGUAUGGUAAUAAGCUGACGGACAUGGUCCUAACCACGCAGCCAAGUCCUAAGUCAACAGAUCUUCUGUUGAUAUGGAUGCAGUUCACAGACUAAAUGUCGGUCGGGGAAGAUGUAUUCUUCUCAUAAGAUAUAGUCGGACCUCUCCUUAAUGGGAGCUAGCGGAUGAAGUGAUGCAACACUGGAGCCGCUGGGAACUAAUUUGUAUGCGAAAGUAUAUUGAUUAGUUUUGGAGUACUCGUGGUCG
Outline: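 Fitness was computed with DiMSum as the error-weighted combination of replicate fold changes, kanamycin versus none, each normalised to wild type. The library randomised all eight intron nucleotides of the P1ex region, with the intron placed in the knt kanamycin-resistance gene on pET-22b(+) in E. coli BL21(DE3). Six replicate transformations were grown overnight at 37°C or 30°C on LB agar with or without 25 μg/mL kanamycin, plus 100 μg/mL carbenicillin, 50 μM IPTG and 0.2% rhamnose. Pooled colonies were amplicon-sequenced on an Illumina HiSeq 2500.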

Sequence | self-splicing fitness (ln) (30 °C) | self-splicing fitness (ln) (37 °C)
CGAUAGCAAUAUUACGAAUC | -3.74 ± 0.22 | -3.08 ± 0.28
CGAUAGCAAUAUUACGAGCA | -3.83 ± 0.26 | -1.86 ± 0.17
CGAUAGCAAUAUUACGAGCC | -2.23 ± 0.28 | -2.61 ± 0.44
CGAUAGCAAUAUUACGAGGC | -3.66 ± 0.35 | -1.95 ± 0.48
CGAUAGCAAUAUUACGAGUC | -2.74 ± 0.19 | -3.73 ± 0.39
CGAUAGCAAUAUUACGCAAC | -3.83 ± 0.4 | -2.49 ± 0.3
CGAUAGCAAUAUUACGCACU | -1.12 ± 0.14 | 0.174 ± 0.14
CGAUAGCAAUAUUACGCCUU | -2.23 ± 0.17 | -2.24 ± 0.17
CGAUAGCAAUAUUACGCGAA | -2.95 ± 0.21 | -1.92 ± 0.21
CGAUAGCAAUAUUACGCGAG | -3.16 ± 0.26 | -2.42 ± 0.2
CGAUAGCAAUAUUACGCUAA |  | -0.607 ± 0.26
CGAUAGCAAUAUUACGCUAG | -1.18 ± 0.1 | -1.52 ± 0.19
CGAUAGCAAUAUUACGCUGA | -2.46 ± 0.17 | -1.59 ± 0.16
CGAUAGCAAUAUUACGGAGG | -1.28 ± 0.14 | -1.17 ± 0.15
CGAUAGCAAUAUUACGGAUG | -0.777 ± 0.058 | 0.18 ± 0.07
CGAUAGCAAUAUUACGGCGA | -1.5 ± 0.25 | -1.11 ± 0.16
CGAUAGCAAUAUUACGGGAU | -4.23 ± 0.31 | -2.86 ± 0.27
CGAUAGCAAUAUUACGGGUC | -4.07 ± 0.46 | -2.46 ± 0.3
CGAUAGCAAUAUUACGGUCU | -0.529 ± 0.072 | 0.511 ± 0.097
CGAUAGCAAUAUUACGGUGU | -2.7 ± 0.11 | -1.06 ± 0.095
CGAUAGCAAUAUUACGUACU | -1.12 ± 0.081 | -0.791 ± 0.12
CGAUAGCAAUAUUACGUAGU | -3.93 ± 0.18 | -1.06 ± 0.1

Sequence | self-splicing fitness (ln) (30 °C) | self-splicing fitness (ln) (37 °C)
CGAUAGCAAUAUUACGUAUC | -3.4 ± 0.3 | 
CGAUAGCAAUAUUACGUCGG | -1.16 ± 0.11 | -0.171 ± 0.11
CGAUAGCAAUAUUACGUGAU | -3.02 ± 0.1 | -0.808 ± 0.088
CGAUAGCAAUAUUACGUGGG | -2.61 ± 0.17 | -0.763 ± 0.16
CGAUAGCAAUAUUACGUUGU | -3.45 ± 0.15 | -2.61 ± 0.21
CGAUAGCAAUAUUACGUUUC |  | -2.12 ± 0.15
CGCAAGCAAUAUUACGAAAG | -0.888 ± 0.071 | -1.12 ± 0.093
CGCAAGCAAUAUUACGAACG | -1.23 ± 0.1 | -1.03 ± 0.14
CGCAAGCAAUAUUACGAAGU | -4.42 ± 0.36 | -0.741 ± 0.15
CGCAAGCAAUAUUACGACAU | -2.999 ± 0.017 | -1.77 ± 0.034
CGCAAGCAAUAUUACGAGAG | -2.52 ± 0.1 | -2.24 ± 0.15
CGCAAGCAAUAUUACGAGCA | -0.102 ± 0.1 | 0.368 ± 0.14
CGCAAGCAAUAUUACGAGUC | -3.43 ± 0.13 | -2.97 ± 0.19
CGCAAGCAAUAUUACGAUCU | -1.61 ± 0.073 | -0.39 ± 0.085
CGCAAGCAAUAUUACGCAAC | -3.19 ± 0.36 | -3.11 ± 0.37
CGCAAGCAAUAUUACGCACC | -1.54 ± 0.29 | -0.0713 ± 0.4
CGCAAGCAAUAUUACGCAGU | -3.23 ± 0.17 | -2.62 ± 0.21
CGCAAGCAAUAUUACGCCCG | -1.22 ± 0.21 | -1.93 ± 0.31
CGCAAGCAAUAUUACGCGAA | -3.58 ± 0.16 | -1.87 ± 0.13
CGCAAGCAAUAUUACGCUAC |  | -2.82 ± 0.48
CGCAAGCAAUAUUACGGAAU | -3.63 ± 0.15 | -2.77 ± 0.18
